In patent US20230039487A1:

Legend:
hBCMA-His (human) = hBCMA-His (human) (UniProt Q02223); test: ELISA; isotype control
hBCMA-mFc = hBCMA-mFc (UniProt Q02223); test: competition ELISA; isotype control; blocking of APRIL binding
Chain of hBCMA-mFc (Q02223 1-54): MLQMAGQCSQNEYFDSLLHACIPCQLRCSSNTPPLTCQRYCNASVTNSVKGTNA

Chain of hBCMA-His (human) (Q02223 1-54): as above

- EC50 (hBCMA-His (human)): 61.4 nM
- IC50 (hBCMA-mFc): 202 nM
Substance: h IgG1 ISO
